Measurements taken from patent publication US20030118557A1, “Axon repair” (priority 2001, published 2003).

B1: CAP-23: growth cone protein; chicken CAP-23 transgene expressed in mouse neurons under Thy-1 promoter (protein, UniProt P23614 2-244, looked up)
Brain acid soluble protein 1 …: GGKLSKKKKGYSVNDEKAKDKDKKAEGAATEEEETPKEAEDAQQTTETTEVKENNKEEKVEKDAQVSANKTEEKEGEKEKTVTQEEAQKAEPEKSEAVVDAKVEPQKNNEQAPKQEEPAAASAPAASSEAPKTSEPSSDAKASQPSEATAPSKADDKSKEEGEAKKTEAPATPAAQETKSEVAPASDSKPSSSEAAPSSKETVAATAAPSSTAKASDPSAPPEEAKPSEAPATNSDQTIAVQD
modifications: transgene in mouse neurons
notes: growth cone protein; chicken CAP-23 transgene expressed in mouse neurons under Thy-1 promoter
B2: GAP-43: growth-associated growth cone protein; chicken GAP-43 transgene expressed in mouse neurons under Thy-1 promoter (protein, UniProt P35001 1-246, looked up)
Neuromodulin: MLCCMRRTKQVEKNEDGDQKIEQDGIKPEDKAHKAATKIQASFRGHITRKKLKGEKKADAPASESEAADKKDEGPAGGAAENKESEASAATEASAADSAQLDEGSKDSSVPAEEKKGNGAADTGSEQPAPQAATPAASSEEKPAAAAETESATKASTDNSPSLKADEAQDKEEPKQADVPAADTTATTTPAAEDATAKATAQPQMETVESSQTEEKTDAVEETKPTESAQQEEVKEEESKADQENA
modifications: transgene in mouse neurons
notes: growth-associated growth cone protein; chicken GAP-43 transgene expressed in mouse neurons under Thy-1 promoter

System: dorsal root ganglion (DRG) neurons
Experiment: short-term in vitro axon outgrowth assay with adult DRG neurons from transgenic mice
Format: cell-based
Conditions: for propensity / number of adult DRG neurons that extended axons: acute outgrowth assay, naive neurons; for extension of long (>300 μm) axons: naive adult DRG neurons from transgenic mice, short-term culture
Description: For the in vitro analysis, dorsal root ganglion (DRG) neurons from adult mice (>8 weeks) were dissociated essentially as described (Smith et al, J. Neurosci. 17:646-658 (1997)), and centrifuged at 200×g for 10 minutes through a cushion of 10% Ficoll in F14 culture medium to remove myelinated axons, cellular debris and non-neuronal cells. Neurons were resuspended in serum-free F14 medium containing N1 supplements, and plated on polylysine/laminin coated glass coverslips as described (Smith et al, J. Neurosci. 17:646-658 (1997)). Cells from 12-14 ganglia were plated in 12 wells of a standard 24-well plate. After 18-24 hours, cultures were fixed in 4% paraformaldehyde for 30 minutes at room temperature, washed and stained with antibodies to detect neurons expressing chicken CAP-23 (monoclonal antibody 15C1) and chicken GAP-43 (rabbit polyclonal antibody) (Caroni et al, J. Cell Biol. 136:679-692 (1997), Aigner et al, Cell 83:269-278 (1995)). To visualize all neuronal processes, cultures were stained with antibodies to β III tubulin (MAB 1637; Chemicon, Temecula, Calif.). Cells were viewed with a CCD camera and analyzed with IPLab 3.2 for the Macintosh (Scanalytics, Inc., Fairfax, Va.). Only neurons that stained strongly for the appropriate transgene(s) were analyzed. In control cultures, cells that stained strongly for the neuron-specific β III tubulin were analyzed. Cells with processes greater than 2 cell body diameters were scored. The length of the longest process for each cell, and the number of branches formed along that process, were then measured.
To identify genes responsible for the onset of axon regeneration, a short-term in vitro assay was used that monitors a transcription-dependent switch in axon extension induced in DRG neurons by axon injury (Smith et al, J. Neurosci. 17:646-658 (1997)). Neurons are removed from adult animals and cultured for 18-24 hours (Smith et al, J. Neurosci. 17:646-658 (1997)). Because the neurons are axotomized during this removal, they will eventually respond by inducing the full complement of growth-associated genes (Smith et al, J. Neurosci. 17:646-658 (1997)). Over the first 24 hours in culture, however, axon outgrowth depends only on genes that were already expressed in the neurons at the time of their removal from the animal (Smith et al, J. Neurosci. 17:646-658 (1997)). Neurons isolated from adult mice with no prior manipulation (naive neurons) supported a limited amount of outgrowth (Smith et al, J. Neurosci. 17:646-658 (1997)) and FIG. 1), characterized by the emergence of relatively short and highly branched axons (FIGS. 2 and 3). In contrast, neurons that had responded to a peripheral nerve lesion several days before removal were much more likely to extend axons (FIG. 1), and those axons were long and sparsely branched (FIGS. 2 and 3). This “elongating” growth resembles the extension required for nerve regeneration in vivo, and reflects the expression of genes induced by peripheral nerve injury (Smith et al, J. Neurosci. 17:646-658 (1997)).

Molecule	propensity / number of adult DRG neurons that extended axons	extension of long (>300 μm) axons	modal length of axons (naive adult DRG neurons, persistent transgene expression, 18-24 hours in culture)
B1	increased the number	did not elicit extension of long axons	
B2	increased the propensity	Only a small fraction	100-150 μm
